# Target: the molecule itself
# Assay: native MS
protein,measurement,value
"Bacillus subtilis pyruvate kinase PykA (enzyme, B. subtilis, UniProt P80885 1-585, looked up) MRKTKIVCTIGPASESIEMLTKLMESGMNVARLNFSHGDFEEHGARIKNIREASKKLGKNVGILLDTKGPEIRTHTMENGGIELETGKELIISMDEVVGTTDKISVTYEGLVHDVEQGSTILLDDGLIGLEVLDVDAAKREIKTKVLNNGTLKNKKGVNVPGVSVNLPGITEKDARDIVFGIEQGVDFIAPSFIRRSTDVLEIRELLEEHNAQDIQIIPKIENQEGVDNIDAILEVSDGLMVARGDLGVEIPAEEVPLVQKELIKKCNALGKPVITATQMLDSMQRNPRPTRAEASDVANAIFDGTDAIMLSGETAAGSYPVEAVQTMHNIASRSEEALNYKEILSKRRDQVGMTITDAIGQSVAHTAINLNAAAIVTPTESGHTARMIAKYRPQAPIVAVTVNDSISRKLALVSGVFAESGQNASSTDEMLEDAVQKSLNSGIVKHGDLIVITAGTVGESGTTNLMKVHTVGDIIAKGQGIGRKSAYGPVVVAQNAKEAEQKMTDGAVLVTKSTDRDMIASLEKASALITEEGGLTSHAAVVGLSLGIPVIVGLENATSILTDGQDITVDASRGAVYQGRASVL",stoichiometry N,4

# Source: doi:10.1101/2020.07.07.191163 (bioRxiv, 2020)
